Substitutions are numbered along the chain they refer to. Names and notes keep the numbering of the source.
What was measured:
HeLa cells [1] = experiment: Autophagosome number / LC3II level in HeLa cells; format: cell-based, human
Description: Cells or tissues were solubilized in RIPA buffer supplemented with protease (ROCHE) and Phosphatase (SIGMA) inhibitors. From 10 to 30 micrograms were loaded on 4-12% Bis-Tris gel (NUPAGE, Invitrogen), transferred to PVDF membranes and analyzed by western blot using the ECL method (Pierce). The following antibodies were used: LC3 (Novus Biological), FLAG, b-ACTIN, TUBULIN (SIGMA), HA (Covance), H3, ERK1/2, p-ERK1/2, p-AKT, p-70S6K (Cell Signaling), ERK2 (Santa Cruz). Protein levels were quantified by using ImageJ software analysis.

HeLa cells [2] = experiment: Subcellular localization and mobility of mutated TFEB-3xFlag in HeLa cells; format: cell-based, human; conditions: for TFEB subcellular localization of serine-to-alanine mutants: HeLa cells, Flag immunostaining
Description: Cells were transiently transfected with DNA plasmids pRK5-mycPAT1, pCEP4-TFEB-his, pC1G2-TFEB, and p3 x FLAG-CMVTFEB using lipofectamine2000 or LTX (Invitrogen) according to the protocol from manufacturer. Site-direct mutagenesis was performed according to the manufacturer instructions (Stratagene) verifying the correct mutagenesis by sequencing.
Cells were seeded at 50% of confluence in 6 well dishes and serum starved overnight (ON). Normal medium was added the following day either in presence of DMSO or kinase inhibitors. Subcellular fractionation was carried out as previously reported. Briefly, cells were lysed in 0.5 Triton X-100 lysis buffer (50 mM Tris-HCl, 0.5% triton, 137.5 mM NaCl, 10% glycerol, 5 mM EDTA supplemented with fresh protease and phosphatase inhibitors. Supernatant represented cytosolic fraction while nuclear pellet was washed twice and lysed in 0.5 Triton X-100 buffer 0.5% SDS and sonicated.

TFEB target genes = experiment: qPCR of TFEB target genes after transfection with normal and mutant TFEB plasmids; format: cell-based, human; conditions: 24 h post-transfection, compared to TFEB(WT), TFEB(S332A) and TFEB(S402A)
Description: (§1) Asterisks in the graph indicate that the P-value was <0.05.

[3] = test system: MEFs, NSCs, HeLa, and COS-7 cells; experiment: Release of lysosomal enzymes in the culture medium; format: cell-based; conditions: TFEB overexpression; acid phosphatase, beta-galactosidase, beta-hexosaminidase
Description: Lysosomal enzymes acid phosphatase, beta-galactosidase, and beta-hexosaminidaseactivities were measured using the appropriate fluorimetric or colorimetric substrates. SGSH activity was measured following protocols described in Fraldi et al., Hum Mol Gen 2007 (33).

long-lived proteins = experiment: Degradation of long-lived proteins; format: cell-based; conditions: TFEB overexpression
Description: Sub-confluent cells were incubated with L-U^14C-serine for 20 h and chased for 1 h with cold media to degrade short-lived proteins. Subsequently cells were incubated with either normal media or starvation media (eventually in the presence of 3-MA) for 4 h. The rate of long-lived protein degradation was calculated from the ratio of soluble radioactivity in the media to that insoluble in the acid-precipitable cell pellet.

[4] = test system: autophagy-related genes in HeLa cells; experiment: qPCR of autophagy-related genes in TFEB stable overexpressing HeLa cells; format: cell-based, human; conditions: TFEB stable overexpression
Description: as §1

[5] = test system: HeLa cells stably expressing GFP-mRFP-LC3; experiment: RFP-GFP tandem tagged LC3 autophagosome-lysosome fusion assay; format: cell-based, human; conditions: TFEB overexpressing cells compared to control cells
LSDs = conditions: TFEB overexpression (45); cited from earlier work
[6] = test system: mouse embryonic fibroblast (MEFs); experiment: Electron microscopy of MEFs infected with lentivirus overexpressing TFEB; format: cell-based
Description: Control and TFEB-overexpressing cells were washed with PBS, and fixed in 1% glutaraldehyde dissolved in 0.2 M Hepes buffer (pH 7.4) for 30 min at room temperature. The cells were then postfixed for 2 h in OsO4. After dehydration in graded series of ethanol, the cells were embedded in Epon 812 (Fluka) and polymerized at 60° C. for 72 h. Thin sections were cut at the Leica EM UC6, counterstained with uranyl acetate and lead citrate. EM images were acquired from thin sections using a Philips Tecnai-12 electron microscope equipped with an ULTRA VIEW CCD digital camera (Philips, Eindhoven, The Netherlands). Quantification of vacuolization was performed using the AnalySIS software (Soft Imaging Systems GmbH, Munster, Germany). Selection of cells for quantification was based on their suitability for stereologic analysis, i.e. only cells sectioned through their central region (detected on the basis of the presence of Golgi membranes) were analyzed.

B1: TFEB(S142A): TFEB variant with serine 142 mutated to alanine (protein, UniProt P19484 1-476, looked up, variant S142A)
Transcription factor EB: MASRIGLRMQLMREQAQQEEQRERMQQQAVMHYMQQQQQQQQQQLGGPPTPAINTPVHFQSPPPVPGEVLKVQSYLENPTSYHLQQSQHQKVREYLSETYGNKFAAHISPAQGSPKPPPAASPGVRAGHVLSSSAGNSAPNAPMAMLHIGSNPERELDDVIDNIMRLDDVLGYINPEMQMPNTLPLSSSHLNVYSSDPQVTASLVGVTSSSCPADLTQKRELTDAESRALAKERQKKDNHNLIERRRRFNINDRIKELGMLIPKANDLDVRWNKGTILKASVDYIRRMQKDLQKSRELENHSRRLEMTNKQLWLRIQELEMQARVHGLPTTSPSGMNMAELAQQVVKQELPSEEGPGEALMLGAEVPDPEPLPALPPQAPLPLPTQPPSPFHHLDFSHSLSFGGREDEGPPGYPEPLAPGHGSPFPSLSKKDLDLMLLDDSLLPLASDPLLSTMSPEASKASSRRSSFSMEEGDVL
modifications: 3xFlag tag
notes: TFEB variant with serine 142 mutated to alanine
HeLa cells [1]; compared to wt TFEB
  induction of the autophagic/lysosomal system (autophagosomes, lysosomes, autophagolysosomes): stronger induction
HeLa cells [2]
  TFEB subcellular localization of serine-to-alanine mutants: constitutive nuclear localization
HeLa cells [2]; compared to TFEB(WT), TFEB(S332A) and TFEB(S402A)
  nuclear localization of mutant TFEB: significantly increased nuclear localization
TFEB target genes
  expression levels of TFEB target genes: increased expression levels

B2: TFEB: transcription factor EB, Seq. Id No. 2, overexpressed from plasmid, lentivirus or stable clone (protein, listed as Homo sapiens)
chain: B1 Transcription factor EB with A142S
[3]
  release of lysosomal enzymes in the culture medium: increases the release of lysosomal enzymes
long-lived proteins
  degradation of long-lived proteins: enhanced
[4]
  AKT1 FOLD INCREASE: 1.2 fold
  AMBRA1 FOLD INCREASE: 1.2 fold
  APP FOLD INCREASE: 1.4 fold
  ARSA FOLD INCREASE: 1.3 fold
  ATG3 FOLD INCREASE: 1.2 fold
  ATG4A FOLD INCREASE: 1.2 fold
  ATG4B FOLD INCREASE: 1.3 fold
  ATG4C FOLD INCREASE: 1.1 fold
  ATG4D FOLD INCREASE: 1.6 fold
  ATG5 FOLD INCREASE: 1.2 fold
  ATG7 FOLD INCREASE: 1.2 fold
  ATG9A FOLD INCREASE: 1.1 fold
  ATG9B FOLD INCREASE: 5.6 fold
  ATG10 FOLD INCREASE: 1.1 fold
  ATG12 FOLD INCREASE: 1.2 fold
  ATG16L1 FOLD INCREASE: −1.2 fold
  ATG16L2 FOLD INCREASE: 1.1 fold
  BAD FOLD INCREASE: 1.0 fold
  BAK1 FOLD INCREASE: 1.4 fold
  BAX FOLD INCREASE: 1.2 fold
  BCL2 FOLD INCREASE: 1.5 fold
  BECN1 FOLD INCREASE: 1.2 fold
  BID FOLD INCREASE: 1.2 fold
  BNIP3 FOLD INCREASE: 1.1 fold
  CLN3 FOLD INCREASE: 1.5 fold
  CXCR4 FOLD INCREASE: 1.3 fold
  DRAM FOLD INCREASE: 1.8 fold
  EIF2AK3 FOLD INCREASE: 1.4 fold
  EIF4G1 FOLD INCREASE: 1.3 fold
  FAM176A FOLD INCREASE: 1.6 fold
  GAA FOLD INCREASE: 1.3 fold
  GABARAP FOLD INCREASE: 1.1 fold
  GABARAPL1 FOLD INCREASE: 1.0 fold
  GABARAPL2 FOLD INCREASE: 1.1 fold
  HGS FOLD INCREASE: −1.1 fold
  HTT FOLD INCREASE: 1.0 fold
  MAP1LC3A FOLD INCREASE: 1.1 fold
  MAP1LC3B FOLD INCREASE: 1.2 fold
  PIK3C3 FOLD INCREASE: −1.2 fold
  PIK3R4 FOLD INCREASE: 1.1 fold
  PTEN FOLD INCREASE: 1.1 fold
  RAB24 FOLD INCREASE: 1.2 fold
  RGS19 FOLD INCREASE: 1.2 fold
  SNCA FOLD INCREASE: 1.6 fold
  SQSTM1 FOLD INCREASE: 2.4 fold
  TP53 FOLD INCREASE: 1.1 fold
  ULK1 FOLD INCREASE: 1.1 fold
  UVRAG FOLD INCREASE: 1.8 fold
  VPS11 FOLD INCREASE: 1.4 fold
  VPS18 FOLD INCREASE: 1.4 fold
  WIPI FOLD INCREASE: 2.5 fold
[5]
  number of autophagolysosomes: higher
HeLa cells [1]; stable TFEB overexpression in HeLa cells
  number of autophagosomes (LC3 marker): increased significantly
LSDs
  substrate clearance and cellular vacuolization in LSDs: able to promote substrate clearance and to rescue cellular vacuolization
[6]
  number of autophagosomes by electron microscopy: An increase in the number of autophagosomes

B3: S211A: TFEB with serine-to-alanine mutation at position 211 (protein, UniProt P19484 1-476, looked up, variant S211A)
Transcription factor EB: B1 Transcription factor EB with A142S, S211A
HeLa cells [2]
  TFEB subcellular localization of serine-to-alanine mutants: constitutive nuclear localization

B4: TFEB S142D: phospho-mimetic mutant of TFEB (protein, UniProt P19484 1-476, looked up, variant S142D)
Transcription factor EB: B1 Transcription factor EB with A142D
modifications: 3xFlag tag
HeLa cells [2]; nutrient starvation
  translocation into the nucleus upon nutrient starvation: unable to translocate into the nucleus

Reference: patent publication US9193755B1, “TFEB variants and uses thereof” (Fondazione Telethon, priority 2011, dated 2015)
